Data set [1] addresses N. punctiforme ATCC29133 PKS aryl carrier protein (ArCP) from HetM of glycolipid synthesis (NpArCP).
For data set [2], the target named is Nostoc punctiforme NRPS peptidyl carrier protein (Nppcp), C-terminal NosA PCP of the putative nostopeptolide cluster.
Data set [3] concerns the target Bacillus brevis ATCC8185 NRPS peptidyl carrier protein involved in tyrocidine biosynthesis (TycPCP).
Data set [4] concerns the target N. punctiforme ATCC29133 PKS acyl carrier protein of nostopeptolide biosynthesis (NpACP).
The target in data set [5] is T1, Synechocystis sp. PCC6803 fatty acid synthesis acyl carrier protein (SACP), P20804.
T1 chain: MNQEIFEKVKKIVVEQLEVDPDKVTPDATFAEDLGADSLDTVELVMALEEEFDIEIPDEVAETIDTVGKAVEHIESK

B1: N. sp. heterocyst carrier protein synthase (NhcS), phosphopantetheinyl transferase from Nodularia spumigena NSOR10 (protein)
chain: MTALNHLWLPVPTNLTLLPNDVHIWRIHLDVPEAQQQNLLATLSGDELTRANRFHFQEHRQRFIAGRGILRSILGSYLGIEPQRVLFDYQERGKPILADSLAKSGLWFNLSHSQGLALCAVNYHNRIGIDLEYIRRMSDVEALAKRFFLPREYDVVRSLSDHQQQEIFFRYWTCKEAYLKATGEGLAQLEQVEVLLNPTEPAQLQTSESWSLFELRAAEDYFAAVVVEGSGCNLQCWQY
As to B1, the “pantetheinylation of the carrier protein (30 min in vitro assay, ESI-MS)” value in data set [1] is “The conversion of the apo-ArCP (15.75 kDa) to the holo-ArCP (16.05 kDa) is seen”; in data set [2], “Nppcp was pantetheinylated”.

B2: Synechocystis sp. PCC6803 phosphopantetheinyl transferase (Sppt) (protein)
chain: MLPQPQIWLCPTDRPLIPGYQALLSSEEMARGERYQRPQDKQRFLTMRLALRILLARQLDCLPQQLQFTYGPQGKPELVDRERRSPWFNVAHSGNYGLIGLSTEGEIGVDLQIMLPKPHYLKLAKRFFAPQEVQQLESLEGEKRTKLFYQLWTAKEAFLKATGKGISGGLNQVIPDENLAKYQYLPDSGDTNHWRLSSQPLLADQGSNDNYWMAIAWCTNEVNQVESNYLPNIQPFQWPRNLDSLP
Consider B2, for which, in data set [3], the “percent of carrier protein phosphopantetheinylated (30 min in vitro assay, ESI-MS)” value is reported as “approximately 54% of the P. aeruginosa PAO1 NRPS TycPCP was phosphopantetheinylated by Sppt”. For the same protein, the “phosphopantetheinylation of the carrier protein (30 min in vitro assay, ESI-MS)” value is given as “Sppt was unable to phosphopantetheinylate the N. punctiforme ATCC29133 NpArCP as shown by mass spectrometry” in data set [1] and “Phosphopantetheinylated NpACP was not reproducibly detected after incubation with Sppt” in data set [4]. Moreover, the “phosphopantetheinylation of the carrier protein (10 min in vitro assay, ESI-MS, +340 Da)” value in data set [5] was “After in vitro incubation with Sppt, SACP showed an increased abundance of phosphopantetheinylated carrier protein”.

For the origin of these results see patent US20100261218A1.
